For 15 molecules, MPV D280 Neutralization - IC50, RSV Neutralization - IC50 and Kd results are on record in patent US20260028391A1.

First the molecules themselves.
B1: MPK152 (antibody, V domains shown)
VH: EVQLVESGGGLVKPGGSLRLSCAASGLTISGYYMIWIRQAPGKGLEWISYISGSSSYTNYADSVKGRFTISRDNGQNTLFLQMDSLRVEDTAVYFCATEETPSPGPFGLWGQGTLVTVSS
VL: QSVVTQPPSVSGAPGQRVTISCTGTSSNIGAGYDVHWYQQFPGTSPKLLIFRNTNRPSGVPDRFSGSTSGSSASLAITGLQTEDEADYYCQSYDRSLDGWVFGGGTELTVL
B2: MPK132-v1 (antibody, V domains shown)
VH: EVQLVESGGGLVKPGGSLRLSCEASGISLSGYYMIWIRQAPGKGLEWISSISSSSNYIDYADSVKGRFTISRHNGQNTLYLQMNSLRVEDTAVYFCATEQTPSPGPFELWGQGILVTVSS
VL: B1 VL with S21F, A31T, F51Y, T68K, T78A, T82A, L97V, D98S, E107K
B3: MPK153 (antibody, V domains shown)
VH: EVHLVESGGGLVKPGGSLRLSCAASGFTFTGYFMIWIRQAPGKGLEWISYISSSSNYINYADSVKGRFTISRDNGQNTLYLQMNSLRPDDTAVYYCATEQVPSPGPFDLWGQGTLVTVSS
VL: B1 VL with V4L, T19I, T44A, N55D, T68K, T78A, T82A, E107K, L108V
B4: MPK129 (antibody, V domains shown)
VH: B2 VH with I27F, S53G, S55G, H73D, Q76H, F95Y, E108D, L109H, I114T
VL: B1 VL with S2T, A31T, F51Y, T68K, T78A, T82A, L97V, D98S, E107K
B5: MPK157 (antibody, V domains shown)
VH: EVQLVESGGGLVKPGGSLRLSCSASGFTLSGYNMNWVRQAPGKGLEWISYISASSSYINYADSVKGRFTISRDNGRSSLYLQMNSLRAEDTAVYFCTTQAELPGWFDPWGQGTLVTVSS
VL: QSVLTQPPSMSGAPGQRVTISCTGSSSNIGAGYDVNWYRQLPGTAPQLLIYRNTNRPSGVPDRFSGSNSGTSASLAITGLQADDEAHYYCQSYDRSLSGWVFGGGTKLTVL
B6: MPK151 (antibody, V domains shown)
VH: EVQLVESGGGLVKPGGSLRLSCAASGLTISGYYMIWIRQAPGKGLEWISDISASSTYTDYAESVKGRFSISRDNGQNTVYLQMNSLRAEDTAVYYCATEQTPSPGPFDLWGQGTLVTVSS
VL: QSVLTQPPSVSGAPGQKITISCTGGSSNFGAGYDVHWYQQFPGTSPKLLIYRNTFRPSGVPDRFSGSKSGTSASLAITGLQAEDEADYYCQSYDRSLSGWVFGGGTKLTVL
B7: MPK155 (antibody, V domains shown)
VH: B2 VH with K65R, E108D
VL: B6 VL with K17R, I18V, S21F, G25T, F29L, N53Y, F55N, T71S, T78A, L97V
B8: MPK127 (antibody, V domains shown)
VH: QVQLVISGGGLVKPGGSLRLSCAASGFRIDSFSLNWVRQAPGKGLEWLASVSASSSYIDYRDSVAGRFTISRDNAQNSLYLQMDTLRAEDTAVYYCARTNGYETGSFDVWGQGTLVTVAS
VL: QSVLTQPPSVSGAPGQRVTISCTGSSSNIGAGYDVHWYQQLPGKAPKLLINANNNRPSGVPDRFSGSNSGTSASLAITGLQAEDEADYYCQSYDKTLSGYVFGLGTTVTVL
B9: MPK177 (antibody, V domains shown)
VH: EVQLVQSGAEVKKPGESLKISCQVSGYSFMNYWVGWVRQMPGKGLEWMGIIYPFDSDTIYSPSFQGHVTISADTSITTAYLHWSSLKASDTATYYCARFTFGIAVVADGLSGDGEAFDIWGQGTVVTVSS
VL: DIVMTQTPATLSVSPGERATLSCRASQSVAGKLAWYQQRPGQTPRLLIYGASTRATGVPARFSGSGSETEFTLTISSLQSEDFAVYYCQQYSSWPHAFGQGTRLDIK
B10: MPK195 (antibody, V domains shown)
VH: EVQLVQSGAAVKKPGESLKISCRGSGYSFINYWIGWVRQMPGKGLEWMGVIYPFDSDTQYSPSFQGHVTISADKSINTAYLQWDSLKAADTAIYYCARFTFGIALSTADVYGEGQAFDIWGPGTMVTVSS
VL: B9 VL with D1E, M4L, T7S, L33I, T43A, S93N, H96Q, Q100P, I106M
B11: MPK171-v1 (antibody, V domains shown)
VH: QVQLVQSGAEVKKPGESLKISCKGSGYSFINYWIGWVRQMPGKGLEWMGIIYPFDSDTKYSPSFQGHVTISADKSINTAYVQWSSLKASDTAMYYCARFTFGIAVVTDDVSGEGHAFDIWGQGTMVTVSS
VL: QSVLTQPPSVSGAPGQRVTISCAGSSSNIGAGFDVHWYQQVPGTAPKLLIYNTDNRASGVPDRFSASKSGTSASLAITGLQAEDEADYYCQSYDNSLSGVFGGGTKLTVL
B12: MPK167 (antibody, V domains shown)
VH: B11 VH with Q1E, A9P, G24A, K59Q, T107A, D108G
VL: B9 VL with D1E, T5M, T7S, K32N, R39S, T43A, Y87F, S93N
B13: MPK191 (antibody, V domains shown)
VH: B11 VH with Q1E, S85G, T107A, D108G, S111T, I119V
VL: B9 VL with D1E, T7S, E17D, K32N, T56S, S92D, S93N
B14: MPK169-v2 (antibody, V domains shown)
VH: EVQLVQSGAEVKKPGESLTISCQTSGYSFINYWIGWVRQMPGKGLEWMGVIYPFDSDTEYSPSFRGHVTISADKSINTAYLQWNSLGASDTAMYYCARFTFGIALVSGDVNGEGHAFDVWGRGTLVTVSS
VL: EIVLTQSPPTLSVSPGQRATLSCRASQSVADKLAWYQQRPGQAPRLLIYGASSRATGVPARFSGSGSETEFTLTITSLQSEDFALYYCHQYNNWPHAFGQGTRLVIK
B15: MPK182 (antibody, V domains shown)
VH: EVQLVESGGGLVKPGGSLRLSCTASLSTFSDYYMTWIRQAPGKGLEWLGYISGSQSQTNLADSVKGRFTISRDNAKKSLYLQMNSLRVEDTATYFCARVHLWFGDLNALDLWGQGTKVTVSS
VL: B11 VL with S74F

Where a chain is given by its changes, count along the chain named.

One test concerns the target fusion glycoprotein of the MPV D280 used in the neutralization assay of Example 3 (metapneumovirus (strain not stated)). Description: cell-based or functional assay.
B1 showed an MPV D280 Neutralization - IC50 of 15.2 ng/mL.

With B2, the MPV D280 Neutralization - IC50 was 10.1 ng/mL.

Take B3: the MPV D280 Neutralization - IC50 stood at 19.9 ng/mL.

In turn, B4 yielded an MPV D280 Neutralization - IC50 of 8.1 ng/mL.

Turning to B5, the MPV D280 Neutralization - IC50 was 7.9 ng/mL.

With B6, the MPV D280 Neutralization - IC50 was found to be 17.8 ng/mL.

In the case of B7, the MPV D280 Neutralization - IC50 worked out at 14.1 ng/mL.

As for B8, the MPV D280 Neutralization - IC50 worked out at 24.3 ng/mL.

The next test addresses fusion glycoprotein of the RSV used in the neutralization assay of Example 1 (respiratory syncytial virus (strain not stated)). Description: cell-based or functional assay.
For the molecule B1, the RSV Neutralization - IC50 was determined as 30.8 ng/mL.

For the molecule B2, the RSV Neutralization - IC50 was found to be 18 ng/mL.

As to B3, the RSV Neutralization - IC50 stood at 29.6 ng/mL.

B4 gave an RSV Neutralization - IC50 of 14.9 ng/mL.

B5 displayed an RSV Neutralization - IC50 of 24.1 ng/mL.

The molecule B6 returned an RSV Neutralization - IC50 of 37.5 ng/mL.

Turning to B7, the RSV Neutralization - IC50 came to 26.5 ng/mL.

On to B9, for which the RSV Neutralization - IC50 amounted to 1 ng/mL.

B10 had an RSV Neutralization - IC50 of 1.1 ng/mL.

B11 yielded an RSV Neutralization - IC50 of 4.3 ng/mL.

In the case of B12, the RSV Neutralization - IC50 was determined as 1 ng/mL.

As for B13, the RSV Neutralization - IC50 amounted to 1.2 ng/mL.

Molecule B8 came in with an RSV Neutralization - IC50 of 78.7 ng/mL.

The target in the next test is RSV fusion glycoprotein (RSV-F) (respiratory syncytial virus (strain not stated)). Description: SPR; sensors loaded with RSV-F, mAb in solution (Experiment 2).
B9: the Kd worked out at 0.001 nM.

B10: the Kd was determined as 0.001 nM.

B14 came in with a Kd of 0.62 nM.

In turn, B11 gave a Kd of 1.2 nM.

B12 gave a Kd of 0.011 nM.

For the molecule B13, the Kd is 0.029 nM.

B15: the Kd was 2.8 nM.

The target of another test is MPV fusion glycoprotein without the D280N mutation (MPV-F D280) (metapneumovirus). Description: SPR; F protein loaded on streptavidin sensors, mAb in solution.
The molecule B1 showed a Kd of 1 pM.

In turn, B2 had a Kd of 1 pM.

In turn, B3 yielded a dissociation constant (Kd) of 1 pM.

B4 displayed a Kd of 1 pM.

In turn, B5 returned a Kd of 1 pM.

The molecule B6 returned a Kd of 1 pM.

On to B7, for which the Kd was 1 pM.

Regarding B8, the Kd turned out to be 1 pM.

The next test addresses MPV fusion glycoprotein with the D280N mutation (MPV-F N280) (metapneumovirus). The description is as above.
For the molecule B1, the Kd worked out at 0.069 nM.

Molecule B2 came in with a Kd of 4.3 nM.

In the case of B3, the Kd is 5.5 nM.

In turn, B4 returned a Kd of 1.9 nM.

Take B5: the Kd was found to be 1.2 nM.

As for B6, the Kd worked out at 0.27 nM.

Turning to B7, the Kd worked out at 2.6 nM.

B8 gave a Kd of 0.001 nM.
